According to patent publication US20220204643A1 (published 2022):

Assays:
G antigen 2A = target: T1, G antigen 2A (human, UniProt Q6NT46 1-116); assay: protein array
T1 construct: on protein array; also called GAGE2A
T1 sequence: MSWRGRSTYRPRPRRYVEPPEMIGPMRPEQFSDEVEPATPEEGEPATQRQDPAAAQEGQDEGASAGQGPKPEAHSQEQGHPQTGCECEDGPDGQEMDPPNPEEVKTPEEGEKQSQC

[1] = target: T2, G protein-coupled receptor 4 (human, UniProt P46093 1-362); assay: protein array
T2 construct: on protein array; also called GPR4

Dexd-box helicase 52 = target: T3, Dexd-box helicase 52 (human, UniProt Q9Y2R4 1-599); assay: protein array
T3 construct: on protein array; also called DDX52
T3 sequence: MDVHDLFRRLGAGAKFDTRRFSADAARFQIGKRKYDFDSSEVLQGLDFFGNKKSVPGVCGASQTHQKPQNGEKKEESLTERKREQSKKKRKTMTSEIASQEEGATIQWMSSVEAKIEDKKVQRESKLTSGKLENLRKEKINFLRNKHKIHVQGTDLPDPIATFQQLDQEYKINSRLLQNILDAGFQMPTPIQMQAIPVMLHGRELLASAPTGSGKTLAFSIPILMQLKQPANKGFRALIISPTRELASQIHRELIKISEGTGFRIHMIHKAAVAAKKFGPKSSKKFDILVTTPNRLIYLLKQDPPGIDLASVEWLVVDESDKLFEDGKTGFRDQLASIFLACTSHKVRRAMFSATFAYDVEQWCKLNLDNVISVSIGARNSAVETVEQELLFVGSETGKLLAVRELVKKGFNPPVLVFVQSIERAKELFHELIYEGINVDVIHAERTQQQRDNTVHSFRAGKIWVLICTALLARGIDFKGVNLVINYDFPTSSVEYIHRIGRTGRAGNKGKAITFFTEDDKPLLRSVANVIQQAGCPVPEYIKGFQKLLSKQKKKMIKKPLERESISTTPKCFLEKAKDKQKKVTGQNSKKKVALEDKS

[2] = target: T4, proliferating cell nuclear antigen, transcript variant 1 (human, UniProt P12004 1-261); assay: protein array
T4 construct: on protein array; also called PCNA
T4 sequence (P12004 whole entry, change not shown): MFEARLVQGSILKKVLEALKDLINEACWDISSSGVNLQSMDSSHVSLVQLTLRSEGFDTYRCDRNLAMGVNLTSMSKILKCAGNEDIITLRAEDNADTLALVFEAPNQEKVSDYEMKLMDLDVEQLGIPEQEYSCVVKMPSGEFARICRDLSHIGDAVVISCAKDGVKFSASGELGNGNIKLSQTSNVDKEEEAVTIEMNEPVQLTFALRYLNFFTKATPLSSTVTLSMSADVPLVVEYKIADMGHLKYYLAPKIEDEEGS

[3] = target: T5, UTP6 small subunit processome component (human, UniProt Q9NYH9 1-597); assay: protein array
T5 construct: on protein array
T5 sequence: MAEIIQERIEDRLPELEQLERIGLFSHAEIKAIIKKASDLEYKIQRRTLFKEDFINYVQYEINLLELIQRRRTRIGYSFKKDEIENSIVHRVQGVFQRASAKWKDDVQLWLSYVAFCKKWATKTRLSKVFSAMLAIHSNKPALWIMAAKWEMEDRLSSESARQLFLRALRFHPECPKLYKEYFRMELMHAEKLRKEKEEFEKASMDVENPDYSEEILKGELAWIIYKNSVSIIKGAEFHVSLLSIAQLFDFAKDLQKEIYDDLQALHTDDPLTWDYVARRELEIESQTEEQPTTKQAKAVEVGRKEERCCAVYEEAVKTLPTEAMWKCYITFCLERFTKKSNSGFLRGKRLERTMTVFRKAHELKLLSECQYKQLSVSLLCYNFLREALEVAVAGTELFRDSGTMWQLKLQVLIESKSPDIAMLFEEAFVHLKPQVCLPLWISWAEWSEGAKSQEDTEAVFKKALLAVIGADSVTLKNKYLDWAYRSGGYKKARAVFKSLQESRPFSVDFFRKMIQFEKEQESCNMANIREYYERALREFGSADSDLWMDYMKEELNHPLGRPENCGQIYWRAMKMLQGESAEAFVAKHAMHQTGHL

[4] = target: T6, glyoxylate and hydroxypyruvate reductase (human, UniProt Q9UBQ7 1-328); assay: protein array
T6 construct: on protein array; also called GRHPR
T6 sequence: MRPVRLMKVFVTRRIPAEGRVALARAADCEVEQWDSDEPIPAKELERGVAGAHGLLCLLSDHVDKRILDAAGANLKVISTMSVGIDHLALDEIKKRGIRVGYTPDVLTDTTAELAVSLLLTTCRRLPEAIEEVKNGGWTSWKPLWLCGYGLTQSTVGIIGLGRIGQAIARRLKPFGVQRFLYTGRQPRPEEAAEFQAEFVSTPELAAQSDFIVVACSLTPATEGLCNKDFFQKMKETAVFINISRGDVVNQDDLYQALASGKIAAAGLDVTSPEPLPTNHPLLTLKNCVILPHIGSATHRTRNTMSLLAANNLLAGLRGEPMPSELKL

[5] = target: T7, acyl-CoA binding domain containing 6 (human, UniProt Q9BR61 1-282); assay: protein array
T7 construct: on protein array; also called ACBD6
T7 sequence: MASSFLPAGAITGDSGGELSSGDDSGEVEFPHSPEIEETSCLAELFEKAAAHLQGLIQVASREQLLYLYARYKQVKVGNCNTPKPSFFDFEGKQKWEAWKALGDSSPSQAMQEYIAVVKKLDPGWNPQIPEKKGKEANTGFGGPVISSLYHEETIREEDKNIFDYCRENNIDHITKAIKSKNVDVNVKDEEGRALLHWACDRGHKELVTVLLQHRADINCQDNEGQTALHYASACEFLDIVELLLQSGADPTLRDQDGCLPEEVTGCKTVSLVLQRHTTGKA

[6] = target: T8, BAF chromatin remodeling complex subunit BCL7C, transcript variant 2 (human, UniProt Q8WUZ0 1-217); assay: protein array
T8 construct: on protein array

[7] = target: T9, influenza virus NS1A binding protein (human, UniProt Q9Y6Y0 1-642); assay: protein array
T9 construct: on protein array; also called IVNS1ABP
T9 sequence: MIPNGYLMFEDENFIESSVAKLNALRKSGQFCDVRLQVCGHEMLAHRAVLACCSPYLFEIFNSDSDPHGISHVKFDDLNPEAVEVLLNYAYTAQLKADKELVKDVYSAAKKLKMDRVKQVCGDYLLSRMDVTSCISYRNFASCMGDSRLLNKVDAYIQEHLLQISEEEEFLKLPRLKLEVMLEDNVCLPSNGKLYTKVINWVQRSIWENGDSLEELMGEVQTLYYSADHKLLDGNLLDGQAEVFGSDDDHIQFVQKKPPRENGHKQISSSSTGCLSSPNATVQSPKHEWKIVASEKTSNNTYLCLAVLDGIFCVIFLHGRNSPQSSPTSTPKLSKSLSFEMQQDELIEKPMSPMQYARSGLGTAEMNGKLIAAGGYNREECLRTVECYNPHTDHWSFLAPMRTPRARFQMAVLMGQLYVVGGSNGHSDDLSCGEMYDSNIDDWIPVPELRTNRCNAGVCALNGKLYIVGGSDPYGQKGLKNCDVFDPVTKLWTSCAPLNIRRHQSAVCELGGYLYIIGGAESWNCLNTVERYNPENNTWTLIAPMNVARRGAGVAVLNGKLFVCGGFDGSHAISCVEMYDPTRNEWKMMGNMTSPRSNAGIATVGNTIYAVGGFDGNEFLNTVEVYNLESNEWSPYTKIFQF

[8] = target: T10, zinc finger DHHC-type containing 1, transcript variant 1 (human, UniProt Q8WTX9 1-485)
T10 construct: HuProt array protein, full-length recombinant from yeast; also called ZDHHC1
T10 sequence: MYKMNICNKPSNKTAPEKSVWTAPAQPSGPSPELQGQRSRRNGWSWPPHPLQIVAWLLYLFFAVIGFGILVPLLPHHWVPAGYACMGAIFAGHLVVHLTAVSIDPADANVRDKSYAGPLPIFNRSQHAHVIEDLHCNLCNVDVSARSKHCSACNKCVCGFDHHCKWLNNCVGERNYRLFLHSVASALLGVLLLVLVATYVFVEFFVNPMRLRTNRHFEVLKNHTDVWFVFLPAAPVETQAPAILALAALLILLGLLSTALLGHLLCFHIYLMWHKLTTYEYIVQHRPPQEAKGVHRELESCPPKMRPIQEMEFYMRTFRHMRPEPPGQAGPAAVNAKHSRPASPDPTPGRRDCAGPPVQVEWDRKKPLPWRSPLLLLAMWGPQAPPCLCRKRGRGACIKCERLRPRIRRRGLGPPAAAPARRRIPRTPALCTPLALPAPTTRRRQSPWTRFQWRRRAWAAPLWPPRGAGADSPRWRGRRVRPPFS

phosducin like = target: T11, phosducin like (human, UniProt Q13371 2-301); assay: protein array
T11 construct: on protein array; also called PDCL
T11 sequence: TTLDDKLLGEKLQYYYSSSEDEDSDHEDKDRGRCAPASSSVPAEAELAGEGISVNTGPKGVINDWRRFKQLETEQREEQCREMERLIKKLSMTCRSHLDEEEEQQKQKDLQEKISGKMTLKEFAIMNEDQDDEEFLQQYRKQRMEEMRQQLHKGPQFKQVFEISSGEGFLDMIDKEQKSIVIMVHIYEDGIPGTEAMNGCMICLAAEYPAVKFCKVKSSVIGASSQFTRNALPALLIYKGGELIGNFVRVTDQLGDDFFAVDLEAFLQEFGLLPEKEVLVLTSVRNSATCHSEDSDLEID

T2 sequence (P46093 whole entry): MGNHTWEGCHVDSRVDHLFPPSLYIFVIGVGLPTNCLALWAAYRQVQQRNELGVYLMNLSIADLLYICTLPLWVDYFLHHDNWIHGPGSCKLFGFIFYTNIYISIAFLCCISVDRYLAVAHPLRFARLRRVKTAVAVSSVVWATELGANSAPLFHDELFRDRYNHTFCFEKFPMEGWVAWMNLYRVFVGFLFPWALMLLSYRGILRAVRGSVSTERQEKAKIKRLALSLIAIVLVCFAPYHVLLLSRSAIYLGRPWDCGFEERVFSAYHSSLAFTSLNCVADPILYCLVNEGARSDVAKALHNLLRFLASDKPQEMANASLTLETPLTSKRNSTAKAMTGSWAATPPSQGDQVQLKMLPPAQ

B1: TTES1012 (antibody, V domains shown)
VH: EVQLVESGGGLVQPGGSLRLSCAASGFTFSSYWMTWVRQAPGKGLEWVANIKQDGSEKYYVDSVKGRFTISRDNSKNSLYLQMNSLRAEDTAVYYCARAGYDLFGWFDPWGQGTLVTVSS
VL: SYELTQPPSVSVSPGQTARITCSGDALPKQYAYWYQQKPGQAPVLVIYKDSERPSGIPERFSGSSSGTTVTLTISGVQAEDEADYYCQSADSSGTYVFGTGTKVTVLG
notes: VH/VL tied via antigen in summary, not by name in this stretch
- binding result (G antigen 2A): binds

B2: TTES1008 (antibody, V domains shown)
VH: QVQLVESGGGVVQPGRSLRLSCAASGFIFSSYGMHWVRQAPGKGLEWVAVISYDGSNKYYADSVKGRFTISRDKSKNTLHLQMNSLRAEDTAVYYCAKDSGSNDDMDVWGKGTTVTVSS
VL: QSVLTQPPSVSAAPGQKVTISCSGSSSNIGNNYVSWYQQLPGTAPKLLIYDNNKRPSGIPDRFSGSKSGTSATLGITGLQTGDEADYYCGTWDSSLSAGVFGTGTKVTVLG
notes: as for B1
- binding result [1]: binds
- binding result (Dexd-box helicase 52): binds

B3: TTHY1002 (antibody, V domains shown)
VH: EVQVVESGGGLGQPGGSLRLSCAASGFTFSSYSMNWVRQAPGKGLEWVSYISSSSSTKYYADSVKGRFTISRDNAKKSLYLQMNSLRDEDTAVYYCASPVRPWGQGTLVTVSS
VL: EIVMTQSPATLSVSPGERATLSCRASQSVSSNLAWYQQKPGQAPRLLIYGASTRATGIPARFSGSGSGTEFTLTISSLQSEDFAIYYCQQYNSWPAFGGGTKVEIK
notes: as for B1
- binding result [2]: binds

B4: TUCE1005 (antibody, V domains shown)
VH: QVQLQESGPGLVKPSETLSLTCTVSGGSISSYYWSWIRQPAGKGLEWIGRIYTSGSTNYNPSLKSRVTMSVDTSKNQFSLKMSSVTAADTAVYYCARGELLFDHWGQGTLVTVSS
VL: not shown
notes: as for B1
- binding result [3]: binds

B5: TTES1004 (antibody, V domains shown)
VH: EVQLVESGGGLVQPGGSLRLSCVASGFTFSSYSMNWVRQAPGKGLKWVSYISSSRSTIYNADSVKGRFTISRDNAKKSLYLQMNSLRAEDTAVYYCARVSVAAPTCLDYWGQGTLVTVSS
VL: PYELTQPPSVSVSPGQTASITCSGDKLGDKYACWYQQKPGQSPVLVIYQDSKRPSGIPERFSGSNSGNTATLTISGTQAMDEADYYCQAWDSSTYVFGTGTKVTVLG
notes: as for B1
- binding result [4]: binds

B6: TTES1006 (antibody, V domains shown)
VH: EVQLVESGGGLVQPGGSLRLSCAASGFTFSKFWMHWVRQAPGKGLVWLSRINTDGTVTTYADSVKGRFTISRDNAKSTLYLQMNSLRVEDTAVYYCAGGGSQVDFWGQGTLVTVSS
VL: PYELTQPPSVSVSPGQTASIACSGDNLGNKYAWWYRQKPGQSPVLVMYKDNKRPSGIPERFSGSNSGNTATLTISGTQAMDEADYYCQTWDSSTVIFGGGTKLTVQ
notes: as for B1
- binding result [5]: binds

B7: TTHY1003 (antibody, V domains shown)
VH: QVQLVQSGAEMKKPGTSVKVSCRTSGYIFTGSFMHWVRQAPAQGLEWMGWINPKTGATYYTEKFKGRVTLTRDTSINTAYMEMTSLRSDDTAVYYCARGFCDLPACYPVPQYNWFDPWGQGTLVTVSS
VL: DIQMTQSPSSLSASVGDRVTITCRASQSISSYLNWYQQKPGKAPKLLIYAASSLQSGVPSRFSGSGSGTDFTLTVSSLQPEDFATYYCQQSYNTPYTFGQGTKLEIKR
notes: as for B1
- binding result [6]: binds
- binding result [7]: binds

B8: TBLA1003 (antibody, V domains shown)
VH: EVQLVESGGGLIQPGRSLRLSCAASGFTFEDYAMHWVRQAPGKGLEWVSGISWNSGNIGYADSVKGRFTISRDNAKNSLYLQMHSLRPEDTALYYCAKDINFFGLGTGGGAMDVWGQGTTVTVSS
VL: DIQMTQSPSYVSASVGDRVTITCRASQGIDVWLAWYQQKPGKAPKLLIYTASSLQSGVPSRFSGSGGGTEFTLTISSLQPEDFATYYCQQSNSFPGTFGPGTKVDVKR
notes: detected with anti-human IgG Fc
- binding result [8]: binds

B9: TTES1007 (antibody, V domains shown)
VH: QITLKESGPTLVKPTQTLTLTCTFSGFSLTTTGVGVGWIRQPPGKALEWLALIYWDDDKRYSPSLKSRLIITKDTSKNQVVLTMTNMDPVDTATYYCAHRFGRGVSYYYYGMDVWGQGTTVTVSS
VL: not shown
notes: as for B1
- binding result (phosducin like): binds
